Reference: the Human Domainome abundance scans (Beltran et al. 2025)
± gives the uncertainty stated by the source.

Experiment: abundance fitness (aPCA) (normalised: wild type 0, dead -1); higher = more abundant; growth selection in yeast, the domain comes from the species named
Settings: Saccharomyces cerevisiae (strain ATCC 204508 / S288c)

Substance	abundance fitness
E3 ubiquitin-protein ligase RSP5 R355N, P39940	-0.008 ± 0.069
E3 ubiquitin-protein ligase RSP5 R355P, P39940	-0.64 ± 0.064
E3 ubiquitin-protein ligase RSP5 R355Q, P39940	-0.013 ± 0.069
E3 ubiquitin-protein ligase RSP5 R355T, P39940	-0.257 ± 0.068
E3 ubiquitin-protein ligase RSP5 R355V, P39940	-0.425 ± 0.045
E3 ubiquitin-protein ligase RSP5 R363C, P39940	-0.219 ± 0.068
E3 ubiquitin-protein ligase RSP5 R363D, P39940	-0.725 ± 0.067
E3 ubiquitin-protein ligase RSP5 R363E, P39940	-0.443 ± 0.057
E3 ubiquitin-protein ligase RSP5 R363F, P39940	-0.805 ± 0.11
E3 ubiquitin-protein ligase RSP5 R363G, P39940	-0.276 ± 0.041
E3 ubiquitin-protein ligase RSP5 R363H, P39940	-0.398 ± 0.066
E3 ubiquitin-protein ligase RSP5 R363I, P39940	-0.473 ± 0.061
E3 ubiquitin-protein ligase RSP5 R363K, P39940	-0.41 ± 0.057
E3 ubiquitin-protein ligase RSP5 R363L, P39940	-0.377 ± 0.047
E3 ubiquitin-protein ligase RSP5 R363M, P39940	-0.233 ± 0.061
E3 ubiquitin-protein ligase RSP5 R363N, P39940	-0.357 ± 0.069
E3 ubiquitin-protein ligase RSP5 R363Q, P39940	-0.367 ± 0.06
E3 ubiquitin-protein ligase RSP5 R363S, P39940	-0.262 ± 0.049
E3 ubiquitin-protein ligase RSP5 R363T, P39940	-0.256 ± 0.056
E3 ubiquitin-protein ligase RSP5 R363V, P39940	-0.437 ± 0.046
E3 ubiquitin-protein ligase RSP5 R363W, P39940	-0.511 ± 0.06

Substance	abundance fitness
E3 ubiquitin-protein ligase RSP5 R363Y, P39940	-0.667 ± 0.08
E3 ubiquitin-protein ligase RSP5 R364A, P39940	0.113 ± 0.055
E3 ubiquitin-protein ligase RSP5 R364D, P39940	0.126 ± 0.067
E3 ubiquitin-protein ligase RSP5 R364E, P39940	0.129 ± 0.052
E3 ubiquitin-protein ligase RSP5 R364H, P39940	0.163 ± 0.092
E3 ubiquitin-protein ligase RSP5 R364I, P39940	-0.088 ± 0.11
E3 ubiquitin-protein ligase RSP5 R364L, P39940	0.074 ± 0.043
E3 ubiquitin-protein ligase RSP5 R364M, P39940	0.051 ± 0.059
E3 ubiquitin-protein ligase RSP5 R364P, P39940	0.072 ± 0.052
E3 ubiquitin-protein ligase RSP5 R364Q, P39940	0.066 ± 0.054
E3 ubiquitin-protein ligase RSP5 R364S, P39940	0.087 ± 0.05
E3 ubiquitin-protein ligase RSP5 R364T, P39940	0.077 ± 0.057
E3 ubiquitin-protein ligase RSP5 R364V, P39940	0.035 ± 0.049
E3 ubiquitin-protein ligase RSP5 R364W, P39940	-0.072 ± 0.048
E3 ubiquitin-protein ligase RSP5 R364Y, P39940	-0.026 ± 0.086
E3 ubiquitin-protein ligase RSP5 S328A, P39940	-0.172 ± 0.046
E3 ubiquitin-protein ligase RSP5 S328C, P39940	0.054 ± 0.079
E3 ubiquitin-protein ligase RSP5 S328D, P39940	0.126 ± 0.074
E3 ubiquitin-protein ligase RSP5 S328G, P39940	-0.113 ± 0.042
E3 ubiquitin-protein ligase RSP5 S328H, P39940	-0.014 ± 0.076
